Broadly, the Ki is the equilibrium dissociation constant of an inhibitor or competing ligand from its target. A lower Ki goes with a stronger hold on the target.

Here are results for 1 molecule from patent US20070265206A1 (PALATIN TECHNOLOGIES, published 2007).

Assay [1] addresses T1, human natriuretic peptide receptor A (NPRA) (human, UniProt P16066 33-1061).
T1 sequence (looked up): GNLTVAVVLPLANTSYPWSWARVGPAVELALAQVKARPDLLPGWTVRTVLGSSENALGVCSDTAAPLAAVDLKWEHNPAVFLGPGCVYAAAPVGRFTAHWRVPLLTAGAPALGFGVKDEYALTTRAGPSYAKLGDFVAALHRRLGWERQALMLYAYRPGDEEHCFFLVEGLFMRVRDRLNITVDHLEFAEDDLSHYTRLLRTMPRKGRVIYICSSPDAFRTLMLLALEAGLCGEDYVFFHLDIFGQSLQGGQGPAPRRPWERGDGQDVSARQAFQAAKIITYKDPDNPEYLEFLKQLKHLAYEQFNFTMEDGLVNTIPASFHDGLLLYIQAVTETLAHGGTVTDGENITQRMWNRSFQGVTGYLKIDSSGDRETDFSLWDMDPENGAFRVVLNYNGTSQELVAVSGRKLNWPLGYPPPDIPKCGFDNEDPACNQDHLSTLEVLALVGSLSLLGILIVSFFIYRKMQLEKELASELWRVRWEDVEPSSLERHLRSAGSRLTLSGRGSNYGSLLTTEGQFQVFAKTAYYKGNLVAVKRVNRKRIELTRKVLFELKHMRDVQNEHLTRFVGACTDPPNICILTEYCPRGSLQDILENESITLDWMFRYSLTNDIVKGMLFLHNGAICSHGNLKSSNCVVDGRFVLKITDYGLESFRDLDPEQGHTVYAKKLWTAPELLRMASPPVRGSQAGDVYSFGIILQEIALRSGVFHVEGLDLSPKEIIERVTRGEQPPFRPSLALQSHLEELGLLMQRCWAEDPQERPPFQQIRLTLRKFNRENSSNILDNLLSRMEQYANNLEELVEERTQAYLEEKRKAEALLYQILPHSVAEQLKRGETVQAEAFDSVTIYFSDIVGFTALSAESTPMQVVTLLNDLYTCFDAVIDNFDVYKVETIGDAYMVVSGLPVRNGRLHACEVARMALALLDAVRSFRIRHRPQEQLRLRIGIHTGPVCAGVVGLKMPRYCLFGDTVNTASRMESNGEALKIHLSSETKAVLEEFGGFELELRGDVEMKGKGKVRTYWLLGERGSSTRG
As to the kind of experiment: cell-based or functional assay.

Assay [2] has as its target T1, human natriuretic peptide receptor A …. As to the kind of experiment: competitive inhibition of [125I]-ANP binding to HEK-hNPRA membrane homogenates. As to the method:
Competitive binding assay. A competitive inhibition binding assay was performed using crude membrane homogenates prepared from HEK-hNPRA cells. To prepare membrane homogenates, cells were rinsed with phosphate-buffered saline and incubated for 15 minutes at 4° C. in hypotonic lysis buffer (10 mM Tris, pH 7.4+5 mM EDTA). Cells were transferred from plates to polypropylene tubes and homogenized. Homogenates were centrifuged at 25,000×g for 20 minutes. Pellets were resuspended in buffer consisting of 50 mM Tris (pH 7.4) and 1 mM EDTA, homogenized and centrifuged at 25,000×g for 20 minutes. […] On the day of an assay, homogenates were thawed and homogenized. […] Assays were stopped by addition of cold wash buffer (phosphate-buffered saline) followed by filtration using a vacuum manifold. Bound radioactivity was determined using a gamma counter. […] Data were analyzed using GraphPad Prism® curve-fitting software.

Bridge positions count the residues as written; N and C are the ends.

B1: mini-ANP, H-Met-cyclo(Cys-His-Phe-Gly-Gly-Arg-Met-Asp-Arg-Ile-Ser-Cys)-Tyr-Arg-NH2 (peptide)
peptide: H-MCHFGGRMDRISCYR-NH2
modifications: disulfide 2-13
SMILES: CC[C@H](C)[C@@H]1NC(=O)[C@H](CCCNC(=N)N)NC(=O)[C@H](CC(=O)O)NC(=O)[C@H](CCSC)NC(=O)[C@H](CCCNC(=N)N)NC(=O)CNC(=O)CNC(=O)[C@H](Cc2ccccc2)NC(=O)[C@H](Cc2c[nH]cn2)NC(=O)[C@@H](NC(=O)[C@@H](N)CCSC)CSSC[C@@H](C(=O)N[C@@H](Cc2ccc(O)cc2)C(=O)N[C@@H](CCCNC(=N)N)C(N)=O)NC(=O)[C@H](CO)NC1=O
notes: also called 15-mer disulfide cyclic peptide
For the molecule B1, the “EC50 (accumulation of intracellular cGMP)” value in assay [1] came to 3.3 nM. Moreover, the Ki in assay [2] is 0.6 nM.
